Source: patent publication US20210371505A1 (Regeneron, published 2021)

Key:
Assay in all cases: cell-based or functional assay
[1] = target: T1, Hemagglutinin of influenza virus A/Aichi/02/1968-PR8-X31 (H3N2) (Influenza A virus …, UniProt P03437 17-566)
[2] = target: Hemagglutinin of influenza virus A/Shanghai/01/2013-PR8 (H7N9) (Influenza A virus …)
[3] = target: Hemagglutinin of influenza virus A/Philippines/01/1982 (H3N2) (Influenza A virus A/Philippines/01/1982 …)
[4] = target: T1, Hemagglutinin of influenza virus …; remark: listed apart in the source

B1: H1H14611N2 (antibody, V domains shown)
VH: EVQLVESGGGLVKPGGSLRLSCAASGFTFSGFSMNWVRQVPGKGLEWVSSISTSGNYMYYADSVKGRFTISRDNAKKSFSLQMNSLRAEDSAIYYCARGGGYNWNLFDYWGQGSLVTVSS
VL: EIVLTQSPGTLSLSPGERATLSCRASQSLNSNYLAWYQQKPGQAPRLLIYGASSRATGIPDRFSGSGSGTDFTLTITRLESEDFAVYYCQQYGNSPLTFGGGTKVEIK
Question: Which results are given for B1?
Answer: EC50, complement-dependent cytotoxicity of virus-infected MDCK cells [1]: 140 nM; IC50 of neutralization, cell viability microneutralization assay on MDCK cells [2]: 405 nM; IC50 of neutralization, cell viability microneutralization assay on MDCK cells [3]: 68.4 nM; IC50 of neutralization, cell viability microneutralization assay on MDCK cells [4]: 7.83 nM
